“And” between values parts separate entries of the source, which are not always exact repeats. Equal values may be shown once.
T1: Halo-tagged full-length Gads (Grb2-related adapter protein downstream of Shc), 1–322aa (UniProt O89100 1-322)
T1 sequence: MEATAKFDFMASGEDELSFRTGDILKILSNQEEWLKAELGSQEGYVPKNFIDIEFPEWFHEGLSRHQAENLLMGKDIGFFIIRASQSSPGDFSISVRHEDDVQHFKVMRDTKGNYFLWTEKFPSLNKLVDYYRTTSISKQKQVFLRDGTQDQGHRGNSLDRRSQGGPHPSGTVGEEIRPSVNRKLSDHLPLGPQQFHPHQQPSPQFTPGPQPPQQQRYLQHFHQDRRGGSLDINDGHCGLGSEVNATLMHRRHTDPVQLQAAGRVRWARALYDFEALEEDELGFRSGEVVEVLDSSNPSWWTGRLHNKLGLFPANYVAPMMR

B1: SLP-76 tyrosine- and proline-rich domains (103–258aa with Y113F and Y173F mutations) (domain or fragment)
chain: GGWSSFEEDDFESPNDDQDGEDDGDYESPNEEEEAPVEDDADYEPPPSNDEEALQNSILPAKPFPNSNSMFIDRPPSGKTPQQPPVPPQRPMAALPPPPAGRNHSPLPPPQTNHEEPSRSRNHKTAKLPAPSIDRSTKPPLDRSLAPFDREPFTLG
B2: Halo-tagged full-length Gads (Grb2-related adapter protein downstream of Shc), 1–322aa (natural protein)
chain: T1 sequence

Assays:
[1] = biological target: T1, Halo-tagged full-length Gads …; experiment: co-sedimentation
[2] = biological target: His-tagged, doubly phosphorylated LAT (48–233aa; pY132 and pY171) (UniProt O43561); experiment: co-sedimentation

| Binder | binding result [1] | % of protein binding to LUV [2] |
| --- | --- | --- |
| B1 | binds | – |
| B2 | – | 26.3% and 31.4% and 42.8% |

Source: article PMC8908268 (The Journal of Biological Chemistry, 2022)
